# According to article PMC10214526, “Semisynthetic LC3 Probes for Autophagy Pathways Reveal a Noncanonical LC3 Interacting Region Motif Crucial for the Enzymatic Activity of Human ATG3” (ACS Central Science, 2023):
# Target: GABARAP(ΔG116)–NHNH methyl-fumarate 2 (UniProt O95166)
# Assay: cross-linking assay with probe 2, Coomassie SDS-PAGE gel densitometry
# Details: GABARAP probe 2 15 μM; ATG3 C1 alanine variants 15 μM; 30 min; parent: est. 1.0; read off a plot
# GABARAP(ΔG116)–NHNH methyl-fumarate 2, sequence (O95166 1-115, stated change not applied): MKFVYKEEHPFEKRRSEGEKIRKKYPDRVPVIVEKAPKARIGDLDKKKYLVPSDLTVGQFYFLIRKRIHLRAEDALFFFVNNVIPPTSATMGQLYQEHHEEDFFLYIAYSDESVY
# ATG3 C1, Q9NT62 T110A, sequence (Q9NT62 other isoform, or with tags, fused parts or gaps T110A): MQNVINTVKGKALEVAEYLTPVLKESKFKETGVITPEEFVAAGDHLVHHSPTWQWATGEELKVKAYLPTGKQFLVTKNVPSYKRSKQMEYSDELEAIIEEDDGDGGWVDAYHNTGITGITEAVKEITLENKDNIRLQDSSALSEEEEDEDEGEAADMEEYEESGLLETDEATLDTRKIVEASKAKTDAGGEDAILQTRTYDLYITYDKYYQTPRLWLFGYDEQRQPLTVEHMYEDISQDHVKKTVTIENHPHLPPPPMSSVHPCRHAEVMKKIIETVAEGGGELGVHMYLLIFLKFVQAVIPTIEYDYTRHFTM
# ATG3 C1, Q9NT62 I98A, sequence (Q9NT62 whole entry I98A): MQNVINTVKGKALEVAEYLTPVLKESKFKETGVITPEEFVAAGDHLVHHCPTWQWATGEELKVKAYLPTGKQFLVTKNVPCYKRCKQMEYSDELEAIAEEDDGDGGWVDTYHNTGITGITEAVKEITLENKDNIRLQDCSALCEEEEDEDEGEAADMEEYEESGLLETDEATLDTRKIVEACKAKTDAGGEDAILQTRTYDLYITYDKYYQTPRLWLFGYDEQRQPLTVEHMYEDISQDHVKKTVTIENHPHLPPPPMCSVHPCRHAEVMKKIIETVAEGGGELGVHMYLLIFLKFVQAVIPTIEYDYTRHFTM
# ATG3 C1, Q9NT62 E95A, sequence (Q9NT62 whole entry E95A): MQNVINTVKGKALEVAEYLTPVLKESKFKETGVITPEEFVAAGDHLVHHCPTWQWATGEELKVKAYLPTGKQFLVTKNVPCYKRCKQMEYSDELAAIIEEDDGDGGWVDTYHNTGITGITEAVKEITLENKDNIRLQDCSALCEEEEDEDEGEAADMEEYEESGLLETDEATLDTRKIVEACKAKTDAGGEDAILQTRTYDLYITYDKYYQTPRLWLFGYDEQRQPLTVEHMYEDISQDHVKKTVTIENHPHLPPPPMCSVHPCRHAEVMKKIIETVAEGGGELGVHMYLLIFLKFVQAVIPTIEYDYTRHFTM
# ATG3 C1, Q9NT62 W107A, sequence (Q9NT62 whole entry W107A): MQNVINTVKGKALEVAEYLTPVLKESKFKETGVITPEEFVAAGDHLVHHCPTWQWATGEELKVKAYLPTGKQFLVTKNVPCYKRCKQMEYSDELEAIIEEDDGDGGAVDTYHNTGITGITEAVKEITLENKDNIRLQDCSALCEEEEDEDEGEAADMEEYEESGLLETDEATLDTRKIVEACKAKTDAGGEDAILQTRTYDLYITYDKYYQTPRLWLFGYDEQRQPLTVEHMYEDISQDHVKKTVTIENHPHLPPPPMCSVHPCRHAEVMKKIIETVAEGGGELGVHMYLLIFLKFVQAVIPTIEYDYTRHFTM
# ATG3 C1, Q9NT62 I97A, sequence (Q9NT62 whole entry I97A): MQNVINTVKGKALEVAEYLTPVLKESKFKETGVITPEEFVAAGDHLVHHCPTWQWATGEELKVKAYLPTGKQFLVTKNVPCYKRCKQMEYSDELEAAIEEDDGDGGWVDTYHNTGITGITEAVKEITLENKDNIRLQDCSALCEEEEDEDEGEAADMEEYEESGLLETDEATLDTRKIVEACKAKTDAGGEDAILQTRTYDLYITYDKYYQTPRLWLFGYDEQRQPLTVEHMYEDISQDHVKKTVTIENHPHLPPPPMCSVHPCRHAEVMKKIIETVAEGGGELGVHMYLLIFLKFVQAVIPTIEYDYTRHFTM
# ATG3 C1, Q9NT62 Y90A, sequence (Q9NT62 whole entry Y90A): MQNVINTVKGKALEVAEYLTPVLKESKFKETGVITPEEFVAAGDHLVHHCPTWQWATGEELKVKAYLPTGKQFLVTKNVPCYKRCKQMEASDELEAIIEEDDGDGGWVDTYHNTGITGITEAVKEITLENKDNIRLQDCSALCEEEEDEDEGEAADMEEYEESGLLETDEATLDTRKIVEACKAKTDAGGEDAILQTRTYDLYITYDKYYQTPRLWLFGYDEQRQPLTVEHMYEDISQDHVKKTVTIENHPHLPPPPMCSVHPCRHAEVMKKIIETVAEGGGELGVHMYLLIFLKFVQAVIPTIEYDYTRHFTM
# ATG3 C1, Q9NT62 E99A, sequence (Q9NT62 whole entry E99A): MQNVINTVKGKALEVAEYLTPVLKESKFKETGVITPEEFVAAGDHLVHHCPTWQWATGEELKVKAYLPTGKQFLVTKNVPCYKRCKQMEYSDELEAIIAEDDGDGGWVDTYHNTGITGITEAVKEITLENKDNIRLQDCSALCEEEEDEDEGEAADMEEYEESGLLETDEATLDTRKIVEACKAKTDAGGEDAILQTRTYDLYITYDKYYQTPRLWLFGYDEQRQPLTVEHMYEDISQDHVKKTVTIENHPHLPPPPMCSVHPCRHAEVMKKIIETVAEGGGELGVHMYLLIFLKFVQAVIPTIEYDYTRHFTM
# ATG3 C1, Q9NT62 D104A, sequence (Q9NT62 whole entry D104A): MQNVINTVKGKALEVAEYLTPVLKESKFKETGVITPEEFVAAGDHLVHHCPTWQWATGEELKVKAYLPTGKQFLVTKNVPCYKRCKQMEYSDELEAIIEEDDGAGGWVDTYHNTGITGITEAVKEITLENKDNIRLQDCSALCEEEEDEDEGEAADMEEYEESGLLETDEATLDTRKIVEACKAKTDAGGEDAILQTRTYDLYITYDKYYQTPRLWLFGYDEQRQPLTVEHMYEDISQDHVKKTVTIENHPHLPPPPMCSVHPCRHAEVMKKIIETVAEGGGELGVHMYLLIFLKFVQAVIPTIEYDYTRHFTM
# ATG3 C1, Q9NT62 V108A, sequence (Q9NT62 other isoform, or with tags, fused parts or gaps V108A): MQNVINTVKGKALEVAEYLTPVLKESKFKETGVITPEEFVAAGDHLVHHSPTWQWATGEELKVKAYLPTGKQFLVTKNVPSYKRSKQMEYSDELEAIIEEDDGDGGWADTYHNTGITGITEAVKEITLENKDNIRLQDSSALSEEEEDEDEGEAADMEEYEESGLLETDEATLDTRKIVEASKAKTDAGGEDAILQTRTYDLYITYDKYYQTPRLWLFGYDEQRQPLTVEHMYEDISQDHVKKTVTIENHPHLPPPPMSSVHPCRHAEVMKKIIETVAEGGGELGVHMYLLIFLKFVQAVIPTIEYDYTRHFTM
# ATG3 C1, Q9NT62 D102A, sequence (Q9NT62 whole entry D102A): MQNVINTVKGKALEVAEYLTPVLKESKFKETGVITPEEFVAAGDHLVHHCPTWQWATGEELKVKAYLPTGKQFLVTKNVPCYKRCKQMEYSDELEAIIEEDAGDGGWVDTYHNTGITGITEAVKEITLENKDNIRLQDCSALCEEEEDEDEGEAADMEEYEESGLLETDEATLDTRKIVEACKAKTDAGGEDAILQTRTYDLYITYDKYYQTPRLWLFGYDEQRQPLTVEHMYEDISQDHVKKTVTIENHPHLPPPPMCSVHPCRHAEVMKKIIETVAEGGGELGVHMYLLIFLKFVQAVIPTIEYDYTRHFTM
# ATG3 C1, Q9NT62 D109A, sequence (Q9NT62 other isoform, or with tags, fused parts or gaps D109A): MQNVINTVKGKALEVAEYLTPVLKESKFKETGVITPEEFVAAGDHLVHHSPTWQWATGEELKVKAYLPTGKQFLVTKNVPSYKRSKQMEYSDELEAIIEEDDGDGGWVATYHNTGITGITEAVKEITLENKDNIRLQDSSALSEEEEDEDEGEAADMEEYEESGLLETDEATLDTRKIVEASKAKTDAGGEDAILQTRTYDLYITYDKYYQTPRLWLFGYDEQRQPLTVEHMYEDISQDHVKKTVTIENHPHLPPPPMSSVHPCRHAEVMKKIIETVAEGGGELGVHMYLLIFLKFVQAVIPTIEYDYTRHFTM
# ATG3 C1, Q9NT62 Y111A, sequence (Q9NT62 whole entry Y111A): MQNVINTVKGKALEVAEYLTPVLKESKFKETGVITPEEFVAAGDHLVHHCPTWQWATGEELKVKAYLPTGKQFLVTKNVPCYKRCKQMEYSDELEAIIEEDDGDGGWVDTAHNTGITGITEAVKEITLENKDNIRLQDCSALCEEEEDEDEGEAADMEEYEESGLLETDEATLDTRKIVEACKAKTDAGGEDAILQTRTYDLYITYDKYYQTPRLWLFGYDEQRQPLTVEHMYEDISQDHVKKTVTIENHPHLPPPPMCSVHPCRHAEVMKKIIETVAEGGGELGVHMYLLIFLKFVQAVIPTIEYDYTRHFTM
# ATG3 C1, Q9NT62 D92A, sequence (Q9NT62 whole entry D92A): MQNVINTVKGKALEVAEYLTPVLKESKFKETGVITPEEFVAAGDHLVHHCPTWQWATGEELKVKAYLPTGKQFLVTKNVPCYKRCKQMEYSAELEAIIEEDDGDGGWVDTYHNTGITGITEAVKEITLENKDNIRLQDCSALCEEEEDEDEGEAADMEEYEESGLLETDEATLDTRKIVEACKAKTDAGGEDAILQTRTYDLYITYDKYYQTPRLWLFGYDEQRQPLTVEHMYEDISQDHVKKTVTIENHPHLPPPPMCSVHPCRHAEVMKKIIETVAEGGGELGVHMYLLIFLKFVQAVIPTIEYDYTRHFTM
row,Substance,ratio to parent
1,"ATG3 C1, Q9NT62 D92A",1
2,"ATG3 C1, Q9NT62 D102A",0.38
3,"ATG3 C1, Q9NT62 D104A",0.55
4,"ATG3 C1, Q9NT62 D109A",1.4
5,"ATG3 C1, Q9NT62 E95A",0.35
6,"ATG3 C1, Q9NT62 E99A",0.52
7,"ATG3 C1, Q9NT62 I97A",0.31
8,"ATG3 C1, Q9NT62 I98A",0.74
9,"ATG3 C1, Q9NT62 T110A",0.8
10,"ATG3 C1, Q9NT62 V108A",0.38
11,"ATG3 C1, Q9NT62 W107A",0.17
12,"ATG3 C1, Q9NT62 Y90A",0.61
13,"ATG3 C1, Q9NT62 Y111A",0.69
